± gives the standard deviation of the averaged measurements.

This data set concerns ATP. As to the kind of experiment: switch fluorescence ratio, 500 uM ATP over buffer (Cy3 cluster intensity, sum of 5 cycles each) (fold (ratio)); higher = stronger signal-on switching upon ATP binding; sequences stand for … in TCGTCGGCAGCGTCAGATGTGTATAAGAGACAGTTTTTTTTTTTTTTTTTTTTTTTTT…TC. To be noted: aptamer strand: ATP DNA aptamer (quencher-CACCTGGGGGAGTATTGCGGAGGAAGG + anchor), 100 nM annealed; ATP concentration: 500 uM. In a few lines: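 Clusters with intensities outside 100-1000 RFU were excluded. The remaining Cy3-labelled switching-strand clusters on a modified Illumina MiSeq flow-cell had been annealed to 100 nM quencher-labelled ATP aptamer and imaged in selection buffer, then after 15 min with 500 uM ATP at 22 °C, for five cycles separated by NaOH stripping and re-annealing. The fluorescence ratio, averaged per switch-domain sequence, is each cluster's summed target-cycle Cy3 intensity over its summed buffer-cycle Cy3 intensity.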
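Further: ATP exposure 15 min at 22 °C before imaging.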

Take TTGGCTTACT: the switch fluorescence ratio is 1.11 ± 0.11.
Consider TTGGCTTAGA, for which the switch fluorescence ratio amounted to 1.001 ± 0.01.
TTGGGAAAGT: the switch fluorescence ratio worked out at 0.995 ± 0.017.
In the case of TTGGGAAGAT it was 0.981 ± 0.018; in that of TTGGGAAGGT, 0.982 ± 0.049.
For the sequence TTGGGACTGT, the switch fluorescence ratio stood at 0.978 ± 0.054.
Consider TTGGGAGCGG, for which the switch fluorescence ratio was 0.9769 ± 0.0038.
To TTGGGAGGTT belongs 0.968 ± 0.025; to TTGGGATAAC, 1.04 ± 0.058; to TTGGGATGCC, 1.08 ± 0.17.
With TTGGGCAAGG, the switch fluorescence ratio worked out at 1.02 ± 0.026.
As to TTGGGCCCGT, the switch fluorescence ratio is 1.02 ± 0.075.
TTGGGCGAGC: the switch fluorescence ratio worked out at 0.9736 ± 0.0045.
For TTGGGGAAGC, the switch fluorescence ratio came to 0.958 ± 0.002.
TTGGGGAAGG: the switch fluorescence ratio is 1.04 ± 0.034.
For the sequence TTGGGGAATT, the switch fluorescence ratio came to 1 ± 0.019.
Regarding TTGGGGAGAG, the switch fluorescence ratio was determined as 0.991 ± 0.01.
For TTGGGGATAT, the switch fluorescence ratio amounted to 0.998 ± 0.039.
In the case of TTGGGGATGG it was 1.01 ± 0.047.
Regarding TTGGGGATTA, the switch fluorescence ratio is 1.09 ± 0.18.
With TTGGGGCAAA, the switch fluorescence ratio was 1.06 ± 0.061.
Turning to TTGGGGCATA, the switch fluorescence ratio was 1.43 ± 0.77.
For TTGGGGCGTT, the switch fluorescence ratio is 0.993 ± 0.057.
Turning to TTGGGGGACG, the switch fluorescence ratio was determined as 0.982 ± 0.048.
As for TTGGGGGACT, the switch fluorescence ratio came out at 1.01 ± 0.042.
Regarding TTGGGGGCAT, the switch fluorescence ratio worked out at 1.02 ± 0.052.
Regarding TTGGGGGCCT, the switch fluorescence ratio stood at 1.04 ± 0.06.
For the sequence TTGGGGGCGA, the switch fluorescence ratio was 1.036 ± 0.0035.
As to TTGGGGGGAA, the switch fluorescence ratio worked out at 1.01 ± 0.025.
On to TTGGGGGGGT, for which the switch fluorescence ratio was determined as 1 ± 0.03.
For the sequence TTGGGGGGTT, the switch fluorescence ratio came to 1.03 ± 0.066.
As to TTGGGGGTCC, the switch fluorescence ratio was determined as 1.02 ± 0.038.
As to TTGGGGTCCC, the switch fluorescence ratio turned out to be 1 ± 0.037.
For TTGGGGTCCG, the switch fluorescence ratio stood at 0.977 ± 0.053.
On to TTGGGGTTAC, for which the switch fluorescence ratio came out at 1.11 ± 0.16.
Regarding TTGGGGTTCT, the switch fluorescence ratio is 1.04 ± 0.033.
TTGGGTAAGT: the switch fluorescence ratio amounted to 1.016 ± 0.0059.
To TTGGGTAGCA belongs 0.9968 ± 0.0098.
In the case of TTGGGTAGCT it was 0.996 ± 0.043.
With TTGGGTAGTG, the switch fluorescence ratio worked out at 0.993 ± 0.031.
To TTGGGTATAG belongs 1.02 ± 0.028; to TTGGGTATGG, 0.997 ± 0.018; to TTGGGTATGT, 1.01 ± 0.038.
For the sequence TTGGGTCAAC, the switch fluorescence ratio was 1.05 ± 0.014.
To TTGGGTCATA belongs 1.01 ± 0.039; to TTGGGTCCTT, 0.993 ± 0.026.
TTGGGTCGGA: the switch fluorescence ratio amounted to 0.992 ± 0.029.
For TTGGGTGGCG, the switch fluorescence ratio was found to be 1.04 ± 0.12.
In the case of TTGGGTGTTG it was 0.997 ± 0.037; in that of TTGGGTTAGC, 1.03 ± 0.037; in that of TTGGGTTCCT, 1.04 ± 0.11.
Regarding TTGGGTTTAT, the switch fluorescence ratio was determined as 0.999 ± 0.017.
With TTGGGTTTGG, the switch fluorescence ratio was found to be 0.986 ± 0.015.
As for TTGGTAATCC, the switch fluorescence ratio was determined as 1.011 ± 0.0026.
TTGGTACCGC: the switch fluorescence ratio came to 1 ± 0.048.
Regarding TTGGTACGGC, the switch fluorescence ratio was 0.99 ± 0.037.
For TTGGTACGGG, the switch fluorescence ratio was determined as 1.01 ± 0.047.
For TTGGTACTGC, the switch fluorescence ratio was found to be 1.03 ± 0.027.
On to TTGGTAGAGT, for which the switch fluorescence ratio came out at 0.965 ± 0.04.
To TTGGTATATA belongs 0.9879 ± 0.0069; to TTGGTATGTA, 1 ± 0.018.
In the case of TTGGTATTTG, the switch fluorescence ratio is 0.993 ± 0.018.
For TTGGTCTATC, the switch fluorescence ratio was determined as 0.998 ± 0.035.
TTGGTGAATT: the switch fluorescence ratio came to 0.99 ± 0.019.
Turning to TTGGTGAGGT, the switch fluorescence ratio was 0.99 ± 0.041.
In the case of TTGGTGCATG it was 1.01 ± 0.04; in that of TTGGTGCGTT, 0.992 ± 0.018; in that of TTGGTGCTGT, 1.01 ± 0.017.
Consider TTGGTTACTT, for which the switch fluorescence ratio is 1.01 ± 0.011.
For TTGGTTATGG, the switch fluorescence ratio is 1 ± 0.039.
In the case of TTGGTTATTT it was 1 ± 0.045.
Take TTGGTTCAGC: the switch fluorescence ratio was 1.05 ± 0.028.
In the case of TTGGTTCCGC it was 1.53 ± 0.48; in that of TTGGTTCTCT, 1.01 ± 0.011.
In the case of TTGGTTCTGA it was 1.021 ± 0.0036; in that of TTGGTTGGAA, 1 ± 0.072.
As to TTGGTTGTAG, the switch fluorescence ratio came out at 1.01 ± 0.02.
For TTGGTTTACG, the switch fluorescence ratio is 1.02 ± 0.03.
For TTGGTTTCGT, the switch fluorescence ratio was 1.022 ± 0.0059.
For TTGGTTTGCC, the switch fluorescence ratio is 0.982 ± 0.029.
In the case of TTGGTTTTGT it was 0.995 ± 0.024; in that of TTGGTTTTTA, 0.98 ± 0.018; in that of TTGTAAAATT, 0.99 ± 0.027.
As to TTGTAAACTT, the switch fluorescence ratio amounted to 1.03 ± 0.012.
In the case of TTGTAACGGA it was 1.01 ± 0.039.
TTGTACTTAC: the switch fluorescence ratio came to 1.24 ± 0.048.
Turning to TTGTAGATGC, the switch fluorescence ratio stood at 1.03 ± 0.071.
Regarding TTGTAGCCGT, the switch fluorescence ratio stood at 0.983 ± 0.029.
As for TTGTAGGAAC, the switch fluorescence ratio is 0.9978 ± 0.0037.
TTGTAGGGAG: the switch fluorescence ratio stood at 1 ± 0.027.
TTGTAGTATC: the switch fluorescence ratio is 1 ± 0.025.
As for TTGTAGTTGG, the switch fluorescence ratio was found to be 0.986 ± 0.058.
Regarding TTGTAGTTTT, the switch fluorescence ratio is 1.01 ± 0.038.
To TTGTATAAGG belongs 1 ± 0.015; to TTGTATCCTG, 0.9637 ± 0.0011.
For TTGTATGGG, the switch fluorescence ratio worked out at 0.984 ± 0.015.
Consider TTGTATTAGG, for which the switch fluorescence ratio was 0.968 ± 0.05.
For TTGTCAGTTT, the switch fluorescence ratio turned out to be 1.03 ± 0.079.
As to TTGTCCGGGG, the switch fluorescence ratio was 1.006 ± 0.0058.
For TTGTCCGTGC, the switch fluorescence ratio is 1.14 ± 0.15.
Take TTGTCCTGCG: the switch fluorescence ratio was 0.965 ± 0.019.
As for TTGTCCTGTG, the switch fluorescence ratio was determined as 1.02 ± 0.036.
To TTGTCGTCGC belongs 0.989 ± 0.024; to TTGTCTCTTT, 0.9932 ± 0.0062; to TTGTGAAAGA, 1.01 ± 0.021.
In the case of TTGTGAATGT, the switch fluorescence ratio was determined as 0.975 ± 0.016.
Regarding TTGTGAGGGG, the switch fluorescence ratio was determined as 0.988 ± 0.022.
On to TTGTGAGTAG, for which the switch fluorescence ratio was determined as 1 ± 0.028.
TTGTGAGTGT: the switch fluorescence ratio came to 1.01 ± 0.034.
TTGTGATACT: the switch fluorescence ratio was determined as 1.07 ± 0.044.
Turning to TTGTGCCCGG, the switch fluorescence ratio is 0.9727 ± 0.009.
In the case of TTGTGCCGGT it was 0.988 ± 0.037; in that of TTGTGCGTAG, 0.991 ± 0.047.
For the sequence TTGTGCTGCC, the switch fluorescence ratio was found to be 1.05 ± 0.027.
Consider TTGTGGAAAT, for which the switch fluorescence ratio was 1 ± 0.069.
Take TTGTGGCAGG: the switch fluorescence ratio was 1.01 ± 0.054.
To TTGTGGCTGT belongs 1.01 ± 0.023.
TTGTGGGGCC: the switch fluorescence ratio was 1 ± 0.029.
TTGTGGGGGG: the switch fluorescence ratio worked out at 0.989 ± 0.036.
As for TTGTGGGTTA, the switch fluorescence ratio turned out to be 0.96 ± 0.012.

These data come from the supplement of paper PMC10126150.
